Reference: patent US20170190778A1

Columns and labels:
[1] = molecular target: TGFβ receptor II (TGFβRII) on IMR90 human lung fibroblasts (human) (UniProt P37173); test: cell-based or functional assay
[2] = molecular target: TGFβ receptor on mink lung epithelial cells (MLEC-TGFβ, PAI-1 promoter luciferase reporter) (mink); test: cell-based or functional assay

TGFβ receptor II (TGFβRII) on IMR90 human lung fibroblasts (human), sequence (P37173 23-567): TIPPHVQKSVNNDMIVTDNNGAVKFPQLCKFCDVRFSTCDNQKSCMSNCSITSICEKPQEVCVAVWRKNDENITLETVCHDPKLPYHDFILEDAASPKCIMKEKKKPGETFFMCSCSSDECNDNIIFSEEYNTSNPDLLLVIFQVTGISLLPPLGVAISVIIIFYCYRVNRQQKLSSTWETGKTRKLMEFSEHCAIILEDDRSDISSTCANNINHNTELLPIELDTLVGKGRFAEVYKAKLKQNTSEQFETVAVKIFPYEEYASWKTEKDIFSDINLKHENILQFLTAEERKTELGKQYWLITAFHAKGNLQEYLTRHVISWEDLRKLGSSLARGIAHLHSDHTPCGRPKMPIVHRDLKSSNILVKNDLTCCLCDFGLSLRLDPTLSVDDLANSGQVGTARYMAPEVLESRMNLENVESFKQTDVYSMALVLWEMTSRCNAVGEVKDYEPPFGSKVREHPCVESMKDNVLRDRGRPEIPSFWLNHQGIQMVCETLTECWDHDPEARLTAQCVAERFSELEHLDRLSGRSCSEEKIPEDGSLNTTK

| SMA and collagen protein expression in IMR90 cells (48 h) [1] [nM] | luciferase activity (PAI-1 promoter reporter in MLEC cells) [2] [µg/mL] | Smad3 phosphorylation in IMR90 cells (Western blot, 30 min) [1] [nM] | Substance |
| --- | --- | --- | --- |
| 30 | 25 | – | C-terminal discoidin and carboxypeptidase domains of mouse ACLP (amino acids 374-1128, C-terminal myc-His tag) (from UniProt Q640N1 374-1128) |
| – | 5 | 30 | N-terminal Tsp repeat domain of mouse ACLP (amino acids 26-373, C-terminal myc-His tag) (from UniProt Q640N1 26-373) (ligand) |
